These results are taken from patent US20230024461A1, “METHODS FOR DUAL DNA/PROTEIN TAGGING OF OPEN CHROMATIN” (Beth Israel Deaconess Medical Center, Inc., priority 2019, published 2023).

Common to all, as to assay type: biochemical, human
The subject of one assay is GM12878 nuclei. Kind of assay: Peroxidase-mediated biotin labeling after transposition, western blot. Here is the method: Western blot. Whole cell lysate was generated by resuspending cells washed with 1×PBS in RIPA (Boston BioProducts) supplemented with 1× complete EDTA-free protease inhibitor cocktail (Roche). Cells were subject to sonication via a Sonic Dismembrator 100 (Fisher Scientific) at setting 2, with 3 pulses of 15 seconds on/off on ice. Lysates were clarified by centrifugation (15,000×g, 30 minutes, 4° C.) and their concentrations quantified with detergent-compatible Bradford assay (Thermo Fisher Scientific). All Western blots were run on NuPAGE 4-12% Bis-Tris protein gels (Thermo Fisher Scientific) and transferred to […] nitrocellulose membranes (GE Healthcare). Membranes were stained with Ponceau S, blocked with 3% milk in PBS-T, and incubated overnight with primary antibody and subsequently with secondary antibody after brief washing with PBS-T. Chemiluminescence was determined by applying ECL Western Blotting detection reagent (GE Healthcare) to membranes and imaging on an Amersham Imager 600 (GE Healthcare). Membranes were stripped with Restore PLUS Stripping Buffer (Thermo Fisher Scientific); streptavidin-HRP was inactivated with 15% hydrogen peroxide. […]
(In general: In western blotting, separated proteins are transferred to a membrane and probed.)

The next assay concerns HEK293T nuclei. Kind of assay: iDAPT protein labeling, western blot of labeled nuclear lysates. Conditions: extracted HEK293T nuclei. As to the method:
(§1) DNA and protein tagging by iDAPT. All iDAPT proteomic labeling assays were performed as described below unless indicated otherwise. 2.5 μmol MEDS-A/B, 2 μmol enzyme, and 1 μmol hemin chloride per channel were incubated at room temperature for 1 hour. 1e7 cells per sample were washed (500×g, 5 minutes, 4° C.), lysed and triturated in 100 μL LB1 (10 mM Tris-HCl pH 7.5, 10 mM NaCl, 3 mM MgCl2, 1% BSA, 0.01% digitonin, 0.1% Tween-20, 0.1% NP-40, and 1× cOmplete EDTA-free protease inhibitor cocktail [Roche]) for 3 minutes, and subsequently supplemented with an additional 1 mL of LB2 (10 mM Tris-HCl pH 7.5, 10 mM NaCl, 3 mM MgCl2, 1% BSA, 0.1% Tween-20, and 1× protease inhibitor). Nuclei were pelleted (500×g, 10 minutes, 4° C.), resuspended with tagmentation reaction mixture (20% dimethylformamide, 10 mM MgCl2, 20 mM Tris-HCl pH 7.5, 33% 1×PBS, 1% BSA, 0.01% digitonin, 0.1% Tween-20, 500 μM biotin-phenol, 1× protease inhibitor, and 2 pmol enzyme equivalent of enzyme:DNA:heme complex in a total volume of 500 μL), and incubated at 37° C. for 30 minutes with agitation on a thermomixer (1,000 rpm). 5 μL of tagmentation mix was saved for quality assessment as described above for ATAC-seq/iDAPT-seq sample preparation. The remaining nuclear suspension was then washed 2× with 1×PBS supplemented with 500 μM biotin-phenol, 1% BSA, 0.1% Tween-20, and 1× protease inhibitor (3000×g, 5 minutes, 4° C.) and labeled with 1 mM hydrogen peroxide and 500 μM biotin-phenol for 1 minute in 1×PBS with 1× protease inhibitor in a volume of 500 μL. Peroxidation reactions were quenched with 500 μL 2× quenching buffer (10 mM Trolox, 20 mM sodium ascorbate, 20 mM NaN3, and 1× protease inhibitor in 1×PBS). Labeled nuclei were then pelleted, washed with 1× quenching buffer, resuspended in 500 μL RIPA containing protease inhibitors, and frozen at −80° C. Lysates were thawed on ice, sonicated via a Sonic Dismembrator 100 (Fisher Scientific, setting 3, 15 seconds, 4 pulses), and incubated on ice for 30 minutes after the addition of 1 μL benzonase (EMD Millipore). Lysates were clarified by centrifugation (15,000×g, 20 minutes, 4° C.), quantified via the detergent-compatible Bradford assay (Thermo Fisher Scientific), and subjected to either Western blotting or quantitative mass spectrometry analyses as described below. For NB4 cell analysis, an additional endogenous peroxidase blocking step was added after nuclear extraction and before tagmentation: nuclei were resuspended in 500 μL 1×PBS containing 1% BSA, 0.03% hydrogen peroxide, and 0.1% NaN3 and incubated on ice for 30 minutes. Nuclei were pelleted and washed 4× with 1×PBS/1% BSA (3000×g, 5 minutes, 4° C.). Residual hydrogen peroxide was monitored by colorimetric assessment of supernatant via Quantofix peroxides test stick (Sigma).
(§2) Western blotting analysis. Whole cell or nuclear lysates were generated by resuspending cells or nuclei in RIPA (Boston BioProducts) supplemented with 1× cOmplete EDTA-free protease inhibitor cocktail (Roche). […] Lysates were clarified by centrifugation (15,000×g, 20 minutes, 4° C.) and their concentrations quantified via the detergent-compatible Bradford assay (Thermo Fisher Scientific). […] Membranes were blocked with 3% milk in PBS-T and incubated overnight with primary antibody and subsequently with secondary antibody after brief washing with PBS-T. Chemiluminescence was determined by applying ECL Western Blotting detection reagent (GE Healthcare) to membranes and imaging on an Amersham Imager 600 (GE Healthcare). […]

Another assay concerns K562 nuclei. Described as above. As to the method:
as §1, §2

B1: TP3: Tn5 transposase-AEAAAKEAAAKA linker-APEX2 peroxidase fusion, C-terminal FLAG; amino acid SEQ ID NO: 27 (protein)
chain: MITSALHRAADWAKSVFSSAALGDPRRTARLVNVAAQLAKYSGKSITISSEGSKAMQEGAYRFIRNPNVSAEAIRKAGAMQTVKLAQEFPELLAIEDTTSLSYRHQVAEELGKLGSIQDKSRGWWVHSVLLLEATTFRTVGLLHQEWWMRPDDPADADEKESGKWLAAAATSRLRMGSMMSNVIAVCDREADIHAYLQDKLAHNERFVVRSKHPRKDVESGLYLYDHLKNQPELGGYQISIPQKGVVDKRGKRKNRPARKASLSLRSGRITLKQGNITLNAVLAEEINPPKGETPLKWLLLTSEPVESLAQALRVIDIYTHRWRIEEFHKAWKTGAGAERQRMEEPDNLERMVSILSFVAVRLLQLRESFTPPQALRAQGLLKEAEHVESQSAETVLTPDECQLLGYLDKGKRKRKEKAGSLQWAYMAIARLGGFMDSKRTGIASWGALWEGWEALQSKLDGFLAAKDLMAQGIKIAEAAAKEAAAKAGKSYPTVSADYQDAVEKAKKKLRGFIAEKRCAPLMLRLAFHSAGTFDKGTKTGGPFGTIKHPAELAHSANNGLDIAVRLLEPLKAEFPILSYADFYQLAGVVAVEVTGGPKVPFHPGREDKPEPPPEGRLPDPTKGSDHLRDVFGKAMGLTDQDIVALSGGHTIGAAHKERSGFEGPWTSNPLIFDNSYFTELLSGEKEGLLQLPSDKALLSDPVFRPLVDKYAADEDAFFADYAEAHQKLSELGFADADYKDDDDK
modifications: C-terminal FLAG
In the case of B1, the “biotinylation signal (streptavidin)” value in the assay on GM12878 nuclei is “highest signals”. Further, the peroxidase-dependent biotin signal result in the assay with HEK293T nuclei is reported as “strong peroxidase-dependent biotin signal”. The biotin labeling result with K562 nuclei is listed as “highest levels of labeling”.
